Reference: patent publication US12419937B2, “High concentration alpha-glucosidase compositions for the treatment of Pompe disease” (Amicus Therapeutics, Inc., priority 2012, dated 2025)

Columns and labels:
[1] = tested on: GAA KO mice; test: Repeat subcutaneous dosing of rhGAA or rhGAA + 1-DNJ co-formulation in GAA KO mice (Example 13); format: in vivo, mouse
Method: 12-week old male GAA KO mice in groups of 7 were used in the present study. Each group of mice was administered one of the following treatments:
(2) Lumizyme® alone (20 mg/kg) delivered subcutaneously (SQ); or
(3) Co-formulated Lumizyme® (20 mg/kg) and 1-DNJ (30 mg/kg) SQ.
Each of the treatments were administered to their respective treatment group for a period of 2 weeks. The treatments were administered on Monday and Thursday of each week. SQ injections were administered between the shoulder blades of each mouse receiving treatment. A total of 4 doses was administered to each study animal. Diphenhydramine was administered intraperitoneally (IP) before the 3rd and 4th doses.
rhGAA and glycogen levels were determined according to the following sampling protocol. Blood was taken from each study animal after the 4th dose for plasma pharmacokinetic analysis. GAA activity, Western blots, and 1-DNJ levels were determined for plasma samples taken 2 and 4 hours after the last SQ dose.
Tissue samples were collected to determine rhGAA uptake 3 days following the last dose of the study (i.e., 3 days post dose 4). Tissue samples included heart, diaphragm, tongue, brain, spleen, liver, biceps, triceps, quadriceps, soleus, gastrocnemius, ventral skin and dorsal skin from the SQ injection site. Tissue samples were also collected to determine glycogen concentration 14 days following the last dose of the study (i.e., 14 days post dose 4).

[2] = Solubility of Lumizyme® in the presence of 1-DNJ-HCl and excipients (Example 12); format: physicochemical; details: for Protein solubility: phosphate buffer
Method: A vial of Lumizyme® containing 52.5 mg protein, 210 mg mannitol, 0.5 mg polysorbate 80, 9.9 mg Na2HPO4×7H2O, and 31.2 mg NaH2PO4×H2O was dissolved in a minimal volume of water (1 mL added) yielding 1.2 mL of protein solution. Five 240-μL aliquots (each containing 10.5 mg protein) were transferred to Amicon Ultra 0.5 mL 30 kDa cutoff centrifugal filter devices and centrifuged for 10 min at 14,000×g in an Eppendorf centrifuge to obtain about 50 μL of retentate.
The original excipients present in the composition, i.e., mannitol and polysorbate 80 were exchanged for new excipients to test protein solubility (keeping the same buffer conditions). The following excipient solutions were prepared for the exchange using the original phosphate buffer:
For exchanging excipients, 5.2 mg Na2HPO4 and 27.1 mg NaH2PO4 were dissolved in 10.3 mL water to prepare the washing/excipient exchange phosphate buffer of approximately 26 mM. A volume of 8 mL of the buffer for excipient exchange was supplemented with 160 mg/mL of the small molecule ligand (to prepare excipient 1, 3, 4 and 5 solutions), while 2 mL was supplemented with 32 mg/mL ligand for excipient 2 (100 mM Arginine). Each of the excipients were dissolved in 2 mL of this buffer at the concentrations listed above.
An excipient solution was added to each separate filter device to achieve a total volume of 0.5 mL. Each filter device was centrifuged for 15 min at 14,000×g in a bench top Eppendorf centrifuge to retain approximately 25 μL. The units were re-filled with the same excipient solution to 0.5 mL and centrifuged again (this process was repeated 2 times). This procedure efficiently replaced mannitol and polysorbate 80 with excipients described above, diluting the original constituents by about 1:1000. All filtrates for each excipient were collected and examined for any protein leaks through the filter.
Each centrifugal filter device was inverted in a clean tube, and the concentrated protein solution was collected from each filter device by centrifugation for 2 min at 1000×g. The volume of each sample was determined (66 μL, corresponding to a target protein concentration of 160 mg/mL), and it was confirmed that no visible precipitate was observable in each sample. Samples were transferred back to their respective filter devices and centrifuged for an additional 5 min. Samples were then collected by inversion of the filters into clean tubes and centrifuging for 2 min at 1000×g to yield about 37 μL of retentate (corresponding to >280 mg/mL protein based on a total initial concentration of 10.5 mg protein).
The samples were vortexed and incubated for 1 hr at room temperature to equilibrate liquid and solid phases followed by centrifugation for 10 min at 14,000×g. Again, no visible precipitate was observed. Two-three 10 μL aliquots were taken from the supernatant of each sample (depending on available volume of the liquid phase), and diluted 1:1000 in two steps. Protein concentration was measured by UV absorbance at 280 nm, and the maximum protein solubility was calculated according to a highly reproducible calibration curve. The calibration curve was prepared by dissolving 6.8 mg of Myozyme® (alglucosidase alpha) lyophilized powder (containing 1.16 mg protein) in 1.16 mL of water followed by a serial dilution in deionized water. Absorbance was measured at 280 nm in a 1 cm light-pass quartz semi-micro cuvette using 0.5 mL aliquots.

[3] = tested on: GAA KO mice; test: rhGAA activity uptake after Myozyme® IV bolus in GAA KO mice (comparison study of Table 3); format: in vivo, mouse; details: 4 doses 20 mg/kg IV bolus at 2 week intervals, 3 days after the last dose
[4] = target: T1, recombinant human GAA (Myozyme®) (Homo sapiens, UniProt P10253); test: SYPRO Orange thermal stability assay (heat-induced denaturation); format: physicochemical; details: pH 5.2 vs pH 7.4; no ASSC
T1 construct: purchased Genzyme Corp
Source text: The thermal stability assay utilizes heat to induce protein denaturation, which is monitored using a SYPRO Orange dye that fluoresces upon binding to hydrophobic amino acids (which are not exposed in a folded protein).
FIG. 5 depicts the results of a thermal stability assay that utilizes heat to induce protein denaturation, which is monitored using a SYPRO Orange dye that fluoresces upon binding to hydrophobic amino acids (which are not exposed in a folded protein).
Denaturation is monitored using a SYPRO Orange dye that fluoresces upon binding to hydrophobic amino acids (which are not exposed in a folded protein).
The thermal stability was performed at pH 7.4 for two formulations, which corresponds to the pH of the ER.

[5] = tested on: GAA KO mice; test: Tissue glycogen reduction in GAA KO mice (Example 9); format: in vivo, mouse; details: Myozyme® 40 mg/kg IV every other week for 8 weeks ± 30 mg/kg oral 1-DNJ-HCl, relative to untreated mice
Method: Glycogen reduction with Myozyme® alone was 93±1%, 41±4%, 69±3%, and 18±4%, in heart (A), diaphragm (B), soleus (C), and quadriceps (D), respectively, relative to untreated mice.
Twelve-week old male GAA KO mice were administered a single dose of Myozyme® (40 mg/kg) via bolus tail vein injection every other week for 8 weeks. To prevent anaphylaxis, before the third and fourth Myozyme® injection, diphenhydramine (10 mg/kg intraperitoneally) was administered 10 min before Myozyme® injection. […] Mice were euthanized 14 days after the last Myozyme® administration.
Glycogen levels in heart, diaphragm, soleus, and quadriceps were then measured. […] Briefly, homogenates were prepared by homogenizing ˜50 mg tissue for 3-5 seconds on ice with a microhomogenizer in […] deionized water. Supernatants were heat denatured (99° C. for 10 min) to remove endogenous amyloglucosidase activity. Denatured lysates (4 μL) were then analyzed in duplicate by addition of 36 μL water with and without 10 μL of 800 U/mL of amyloglucosidase (Sigma Aldrich, St. Louis, MO) and incubated for 1 hour at 50° C. The reaction was stopped by inactivation at 100° C. for 10 min. Finally, 200 μL of glucose reagent (Sigma) was added absorbance read at 340 nm on Spectramax. A standard curve ranging from 5 μg/mL to 400 μg/mL Type III rabbit liver glycogen (Sigma) was run each day for conversion of absorbance to absolute glycogen units. Simultaneously, the amount of protein was determined in tissue homogenates using the Micro BCA Protein Assay (Pierce, Rockford, IL) following the manufacturer's instructions. The glycogen content of each sample was normalized to protein, and data were finally expressed as micrograms of glycogen per milligram of protein (μg/mg protein).

[6] = reported; cited from earlier work
[7] = tested on: GAA KO mice; test: Myozyme® tissue uptake in GAA KO mice with and without oral 1-DNJ-HCl (Example 3); format: in vivo, mouse; details: 10 mg/kg IV weekly; 7 days post injection
Method: Five groups of GAA KO mice were administered one of the following formulations: […]
(2) 10 mg/kg of Myozyme® IV once per week, for up to three weeks
Tissue homogenates were generated for analysis. Enzymatic activity as determined using a 4-MUG fluorogenic substrate assay.

[8] = target: T2, rhGAA (e.g., Myozyme®) (Homo sapiens, UniProt P10253); test: rhGAA enzyme inactivation in citrate anti-coagulated whole blood at 37° C. (Examples 7, 8); format: in vitro ADME; details: for enzyme inactivated in whole blood: no 1-DNJ-HCl
T2 construct: purchased Genzyme Corp; host or cells: Chinese hamster ovary cell line
Method: Aliquots were collected at 0, 2, 4, 8 and 24 hrs and centrifuged to obtain plasma. These plasma samples were then diluted in potassium acetate buffer (pH 4.0) and assayed for GAA activity using the 4-methylumbeliferyl-α-glucose (4-MUG) fluorogenic substrate. The measured GAA activity for individual samples at each time point was normalized to the 0 hr and expressed as % of initial activity. Data from 4 independent experiments were analyzed to obtain the mean (and standard deviation) and plotted versus time to assess the loss of enzyme activity over this time course.
Aliquots were collected at 0, 3 and 6 hrs and centrifuged to obtain plasma. These plasma samples were then diluted in potassium acetate buffer (pH 4.0) and assayed for GAA activity using the 4-methylumbeliferyl-α-glucose (4-MUG) fluorogenic substrate. The measured GAA activity for individual samples at each time point was normalized to the 0 hr and expressed as % of initial activity.
Moreover, since Myozyme® has a long plasma half-life (reported to be more than 3 hrs), there is a high probability that an appreciable amount of the enzyme remains in the circulation many hours after the infusion that would also be prone to inactivation.
Based on human plasma PK data, these concentrations are readily obtainable in the clinic.

[9] = rat, iv
[10] = 4 doses Lumizyme 20 mg/kg +/− 1-DNJ 30 mg/kg SQ at 3-4 day intervals, 3 days after the last dose

## alglucosidase alfa [Lumizyme®]
[1]; [10]
  rhGAA activity uptake, Biceps: 56.0 nmol/mg/h
  rhGAA activity uptake, Diaphragm: 4.2 nmol/mg/h
  rhGAA activity uptake, Gastrocnemius: 2.0 nmol/mg/h
  rhGAA activity uptake, Heart: 1.9 nmol/mg/h
  rhGAA activity uptake, Quadriceps: 2.1 nmol/mg/h
  rhGAA activity uptake, Skin: 75 nmol/mg/h
  rhGAA activity uptake, Soleus: 2.7 nmol/mg/h
  rhGAA activity uptake, Tongue: 2.7 nmol/mg/h
  rhGAA activity uptake, Triceps: 88.0 nmol/mg/h
[2]; Arginine 100 mM, 1-DNJ-HCl 32 mg/mL
  Protein solubility: 201 mg/mL
[2]; Arginine + Glutamic acid 50 mM + 50 mM, 1-DNJ-HCl 160 mg/mL
  Protein solubility: 242 mg/mL
[2]; Gamma-cyclodextrin 10% (w/v), 1-DNJ-HCl 160 mg/mL
  Protein solubility: 114 mg/mL
[2]; PEG400 5% (w/v), 1-DNJ-HCl 160 mg/mL
  Protein solubility: 158 mg/mL
[2]; Proline 250 mM, 1-DNJ-HCl 160 mg/mL
  Protein solubility: 195 mg/mL
[2]; without the added excipients
  solubility of the protein: about 80 mg/mL

## alglucosidase alfa [Myozyme®]
[3]
  rhGAA activity uptake, Biceps: 10.1 nmol/mg/h
  rhGAA activity uptake, Diaphragm: 7.1 nmol/mg/h
  rhGAA activity uptake, Gastrocnemius: 17.9 nmol/mg/h
  rhGAA activity uptake, Heart: 1.8 nmol/mg/h
  rhGAA activity uptake, Quadriceps: 6.9 nmol/mg/h
  rhGAA activity uptake, Skin: 27.1 nmol/mg/h
  rhGAA activity uptake, Soleus: 8.0 nmol/mg/h
  rhGAA activity uptake, Tongue: 12.4 nmol/mg/h
  rhGAA activity uptake, Triceps: 3.9 nmol/mg/h
[4]
  stability of Myozyme® at lysosomal pH vs ER pH: much more stable at lysosomal pH (5.2) than at ER pH (7.4)
[5]
  glycogen reduction in diaphragm: 41±4%
  glycogen reduction in heart: 93±1%
  glycogen reduction in quadriceps: 18±4%
  glycogen reduction in soleus: 69±3%
[6]
  plasma half-life: more than 3 hrs
[7]
  Myozyme® tissue uptake (as a measure of GAA activity) over time: declined at 7 days post injection

## rhGAA: recombinant human acid α-glucosidase; Myozyme® in Examples 7-8, Lumizyme® in Example 13, product not named in Examples 5-6
[1]; 4 hours after the final SQ dose
  plasma rhGAA levels: increased compared to the levels in the 2 hour samples
[8]; by 4 hrs
  enzyme inactivated in whole blood: approximately 40%
[8]; by 8 hrs
  enzyme inactivated in whole blood: ~70%
[8]; by 24 hrs
  enzyme inactivated in whole blood: ~100%
[8]; incubated with 50 μM 1-DNJ-HCl, up to 24 hrs
  enzyme activity in whole blood: remained completely active
[9]
  in vivo half life of rhGAA: 1.4 ± 0.2 h
